The values that follow come from PMC10454739, “Further Developments towards a Minimal Potent Derivative of Human Relaxin-2” (International Journal of Molecular Sciences, 2023).

In one test the target is T1, RXFP1 (Homo sapiens, UniProt Q9HBX9).
T1 construct: expressed in transfected cells; host or cells: HEK-293T
T1 sequence (Q9HBX9 1-757): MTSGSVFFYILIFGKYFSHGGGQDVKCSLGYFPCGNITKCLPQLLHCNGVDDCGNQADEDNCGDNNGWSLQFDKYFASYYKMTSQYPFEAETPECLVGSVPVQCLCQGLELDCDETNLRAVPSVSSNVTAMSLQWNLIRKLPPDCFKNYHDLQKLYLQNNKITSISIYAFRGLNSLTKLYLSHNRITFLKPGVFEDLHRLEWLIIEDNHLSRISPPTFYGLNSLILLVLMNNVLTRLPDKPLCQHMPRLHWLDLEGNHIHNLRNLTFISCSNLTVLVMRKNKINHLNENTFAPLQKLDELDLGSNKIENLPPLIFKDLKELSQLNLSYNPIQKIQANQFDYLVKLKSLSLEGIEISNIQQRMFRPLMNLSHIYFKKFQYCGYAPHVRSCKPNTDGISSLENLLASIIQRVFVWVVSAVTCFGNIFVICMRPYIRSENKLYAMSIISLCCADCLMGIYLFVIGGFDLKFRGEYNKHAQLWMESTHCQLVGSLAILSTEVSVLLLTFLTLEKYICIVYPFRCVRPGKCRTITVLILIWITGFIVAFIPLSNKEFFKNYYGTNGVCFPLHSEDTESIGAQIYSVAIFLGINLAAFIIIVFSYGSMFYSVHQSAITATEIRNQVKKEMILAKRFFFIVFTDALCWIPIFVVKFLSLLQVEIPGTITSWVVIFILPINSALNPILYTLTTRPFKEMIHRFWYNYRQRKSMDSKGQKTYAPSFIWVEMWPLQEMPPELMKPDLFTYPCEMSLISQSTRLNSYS
Nature of the test: cAMP activity assay in HEK-RXFP1 cells (pCRE β-gal reporter). The test is classed as cell-based. To be noted: HEK-RXFP1 cells stably transfected with pCRE β-gal reporter, 37 °C for 6 h; four-parameter fit; mean ± S.E.M., n in brackets.

The target in test [1] is T2, 7BP (RXFP1 ectodomain fused to the single trans-membrane-spanning domain of CD8) (Homo sapiens, UniProt Q9HBX9).
T2 construct: contains the RXFP1 ectodomain fused to the single trans-membrane-spanning domain of CD8; expressed in transfected cells; host or cells: HEK cells (HEK-7BP)
T2 sequence (Q9HBX9 1-409 limits assumed): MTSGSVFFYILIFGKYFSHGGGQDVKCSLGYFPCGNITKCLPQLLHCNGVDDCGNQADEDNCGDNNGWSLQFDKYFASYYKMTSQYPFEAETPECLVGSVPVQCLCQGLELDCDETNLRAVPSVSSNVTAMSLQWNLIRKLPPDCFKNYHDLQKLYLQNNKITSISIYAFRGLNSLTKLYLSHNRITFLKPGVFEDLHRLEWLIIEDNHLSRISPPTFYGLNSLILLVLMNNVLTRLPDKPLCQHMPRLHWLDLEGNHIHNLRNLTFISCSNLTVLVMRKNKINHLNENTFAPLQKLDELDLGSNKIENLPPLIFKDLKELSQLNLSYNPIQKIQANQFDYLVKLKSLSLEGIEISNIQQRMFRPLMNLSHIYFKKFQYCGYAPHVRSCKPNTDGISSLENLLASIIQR
Kind of test: Competitive binding assay with Eu3+-labeled H2 relaxin in HEK-7BP cells. To be noted: whole-cell competition binding vs Eu3+-labeled H2 relaxin, HEK cells expressing 7BP; one-site fit; mean ± S.E.M., n of experiments in brackets.
Experimental: Human embryonic kidney (HEK-293T) cells stably transfected with RXFP1 were cultured in RPMI 1640 medium supplemented with 10% fetal calf serum, 100 μg mL^−1 penicillin, 100 μg mL^−1 streptomycin, and 2 mM of L-glutamine and plated into 96-well plates pre-coated with poly-L-lysine for whole-cell binding assays (Merck, Darmstadt, Germany). Competition binding experiments using Eu^3+-labeled H2 relaxin in the absence or presence of increasing concentrations of unlabeled H2 relaxin B-chain derivatives were conducted as previously described [13]. All data are presented as the mean ± S.E.M. of the % specific binding of triplicate wells, repeated in at least three separate experiments, and curves were fitted using one-site binding curves in GraphPad Prism 9 (GraphPad Inc., San Diego, CA, USA).

Consider “B13-31: N-terminally truncated single-chain H2 relaxin analog, residues 13–31 (RELVRAQIAICGMSTWSKR; Relaxin B chain; UniProt P04090 37-55, looked up, fragment)”, for which the “cAMP pEC50” value in the test with RXFP1 is given as “No activity”. In addition, in test [1], the “7BP Eu-H2 pKi” value is below 5.
